Laboratory results from PMC7022206.

Assays:
[1] = target: Cysteine-tagged FG domain of human Nup153 (human); assay: SPR
[2] = target: NLS-conjugated polymersome nanocarriers (bipartite nucleoplasmin NLS peptide on PMOXA-PDMS-PMOXA polymersomes); assay: dual-color fluorescence lifetime cross-correlation spectroscopy

“Kapα•Kapβ1 (from UniProt P52292;Q14974) (complex)” showed a Kd [1] of 24.8 nM and a Kd [2] of under 0.4 nM.
